The source of these data is PMC3853298, “The Concave Face of Decorin Mediates Reversible Dimerization and Collagen Binding*” (The Journal of Biological Chemistry, 2013).

Substitutions are numbered along the chain they refer to. Names may count otherwise.

Series [1] deals with the molecule itself. Nature of the series: AUC; sedimentation velocity, 20 °C, 40,000 rpm, PBS, 0.028 (0.77 uM) to 3.4 mg/ml (94 uM); c(s) peaks of monomer and dimer integrated and fitted to a monomer-dimer equilibrium; dimer to monomers.
Series [2] deals with the molecule itself. Put plainly: SEC-MALS; injected at 3 mg/ml (83 uM) onto Superdex 200 10/30, TBS (20 mM Tris, 150 mM NaCl, pH 7.5), 0.2 ml/min; three-detector method for the polypeptide mass. On the technique in general: In gel filtration, larger molecules generally elute earlier.

B1: mouse decorin core protein, wild type (residues 45-354) (domain or fragment)
chain: APLALISMCPYRCQCHLRVVQCSDLGLDKVPWDFPPDTTLLDLQNNKITEIKEGAFKNLKDLHTLILVNNKISKISPEAFKPLVKLERLYLSKNQLKELPEKMPRTLQELRVHENEITKLRKSDFNGLNNVLVIELGGNPLKNSGIENGAFQGLKSLSYIRISDTNITAIPQGLPTSLTEVHLDGNKITKVDAPSLKGLINLSKLGLSFNSITVMENGSLANVPHLRELHLDNNKLLRVPAGLAQHKYIQVVYLHNNNISAVGQNDFCRAGHPSRKASYSAVSLYGNPVRYWEIFPNTFRCVYVRSAIQLGNYKAAA
modifications: N-linked glycans (four consensus sites for N-linked glycosylation)
notes: vector-encoded residues left at the N-terminus after cleavage of the BM-40 signal peptide; decorin, mouse, UniProt P28654, residues 45-354; the numbering includes the signal peptide; corresponds to the ordered residues of the bovine decorin core crystal structure; Core protein without the glycosaminoglycan attachment region; exists in a monomer-dimer equilibrium; also called WT; wild-type mouse …
In the case of B1, the Kd in series [1] was 1370 ± 300 nM. Besides, the “stoichiometry N” value in series [2] was 2.

B2: mouse decorin core protein R151E (residues 45-354) (domain or fragment)
chain: B1 chain with R111E
modifications: N-linked glycans (four consensus sites for N-linked glycosylation)
notes: vector-encoded residues left at the N-terminus after cleavage of the BM-40 signal peptide; decorin, mouse, UniProt P28654, residues 45-354; the numbering includes the signal peptide; R151E reverses a charge in LRR5; source: HEK293 c18 cells, episomally transfected (pCEP-Pu), secreted; purified from conditioned medium (HisTrap, Superdex 200); not shown: His6, C-terminal, kept
As for B2, binding in series [1] was characterised by a dissociation constant (Kd) of 470 ± 90 nM. For the same protein, the “stoichiometry N” value in series [2] was 2.

B3: mouse decorin core protein Y51A/R52A/Q54A (residues 45-354) (domain or fragment)
chain: B1 chain with Y11A, R12A, Q14A
modifications: N-linked glycans (four consensus sites for N-linked glycosylation)
notes: vector-encoded residues left at the N-terminus after cleavage of the BM-40 signal peptide; decorin, mouse, UniProt P28654, residues 45-354; the numbering includes the signal peptide; triple mutation in the N-terminal cap; also called Y51A/R52A/Q54 mutant; source: HEK293 c18 cells, episomally transfected (pCEP-Pu), secreted; purified from conditioned medium (HisTrap, Superdex 200); not shown: …
The protein B3 returned a Kd in series [1] of 2300 ± 800 nM. Further, the “stoichiometry N” value in series [2] was found to be 2.

As usually defined, the Kd is the concentration at which binding is half-saturated. Low readings indicate tighter binding, high ones weaker binding. As a reminder, the stoichiometry N is the number of molecules, sites or subunits per partner or assembly.
